Test results as given in US20230374132A1 (Innovent, published 2023).

What was measured:
[1] = target: T1, human CD3 E&D complex protein (Sino Biological Inc., CT026H0323H) (human, UniProt P07766 23-126; P04234 22-105); assay: BLI, antibody on sensor
T1 construct: bought heterodimer; also called human CD3 protein (CT026H0323H)

[2] = target: T2, human CD3E&G complex (Sino Biological Inc., CT041-H0305H) (human, UniProt P07766 23-126; P09693 23-116); assay: BLI, antibody on sensor
T2 construct: bought heterodimer; also called human CD3E&G antigen
T2 sequence (P07766 23-126, chain 1 of 2): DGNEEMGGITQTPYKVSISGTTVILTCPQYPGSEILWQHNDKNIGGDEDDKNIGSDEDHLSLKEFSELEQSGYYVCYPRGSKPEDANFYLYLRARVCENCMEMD
T2 sequence (P09693 23-116, chain 2 of 2): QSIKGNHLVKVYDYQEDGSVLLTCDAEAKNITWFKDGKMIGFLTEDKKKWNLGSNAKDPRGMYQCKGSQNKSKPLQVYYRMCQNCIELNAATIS

T1 sequence (P07766 23-126, chain 1 of 2): as the sequence (P07766 23-126, chain 1 of 2) above
T1 sequence (P04234 22-105, chain 2 of 2): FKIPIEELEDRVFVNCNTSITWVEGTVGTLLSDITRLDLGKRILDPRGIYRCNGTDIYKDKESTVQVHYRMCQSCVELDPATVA

Binder	Kd [1]	koff [1]	kon [1]	Kd [2]	koff [2]	kon [2]
hzsp34.78 (antibody, human IgG1, lambda, L234A L235A, V domains shown, CDR mutant of hzsp34.24; IgG1 L234A L235A, lambda) VH: EVQLVESGGGLVQPGGSLKLSCAASGFTFGTYAMNWVRQASGKGLEWVGRIRSKYNNYATYYADSVKDRFTISRDDSKSTLYLQMNSLKTEDTAVYYCARHGNFGQSYVSWFAYWGQGTTVTVSS VL: QAVVTQEPSLTVSPGGTVTLTCRSSTGAVTTSNYANWVQQKPGQAPRGLIGGTNKRAPGVPARFSGSLLGDKAALTLLGAQPEDEAEYYCALWYSNLWVFGQGTKLTVLG	1.35 nM	0.0003 s⁻¹	223000 M⁻¹ s⁻¹	8.97 nM	0.00224 s⁻¹	250000 M⁻¹ s⁻¹
hzsp34.79 (antibody, human IgG1, lambda, L234A L235A, V domains shown, CDR mutant of hzsp34.24; IgG1 L234A L235A, lambda) VH: EVQLVESGGGLVQPGGSLKLSCAASGFTFNGYAMNWVRQASGKGLEWVGRIRSKYNNYATYYADSVKDRFTISRDDSKSTLYLQMNSLKTEDTAVYYCARHGNFGQSYVSWFAYWGQGTTVTVSS VL: QAVVTQEPSLTVSPGGTVTLTCRSSTGAVTTSNYANWVQQKPGQAPRGLIGGTNKRAPGVPARFSGSLLGDKAALTLLGAQPEDEAEYYCALWYSNLWVFGQGTKLTVLG	0.507 nM	0.000118 s⁻¹	233000 M⁻¹ s⁻¹	6.36 nM	0.00154 s⁻¹	242000 M⁻¹ s⁻¹
hzsp34.80 (antibody, human IgG1, lambda, L234A L235A, V domains shown, CDR mutant of hzsp34.24; IgG1 L234A L235A, lambda) VH: EVQLVESGGGLVQPGGSLKLSCAASGFTFNTAAMNWVRQASGKGLEWVGRIRSKYNNYATYYADSVKDRFTISRDDSKSTLYLQMNSLKTEDTAVYYCARHGNFGQSYVSWFAYWGQGTTVTVSS VL: QAVVTQEPSLTVSPGGTVTLTCRSSTGAVTTSNYANWVQQKPGQAPRGLIGGTNKRAPGVPARFSGSLLGDKAALTLLGAQPEDEAEYYCALWYSNLWVFGQGTKLTVLG	6.55 nM	0.00147 s⁻¹	225000 M⁻¹ s⁻¹	15.4 nM	0.00213 s⁻¹	138000 M⁻¹ s⁻¹
hzsp34.81 (antibody, human IgG1, lambda, L234A L235A, V domains shown, CDR mutant of hzsp34.24; IgG1 L234A L235A, lambda) VH: EVQLVESGGGLVQPGGSLKLSCAASGFTFNTYAMNWVRQASGKGLEWVGRISSKYNNYATYYADSVKDRFTISRDDSKSTLYLQMNSLKTEDTAVYYCARHGNFGQSYVSWFAYWGQGTTVTVSS VL: QAVVTQEPSLTVSPGGTVTLTCRSSTGAVTTSNYANWVQQKPGQAPRGLIGGTNKRAPGVPARFSGSLLGDKAALTLLGAQPEDEAEYYCALWYSNLWVFGQGTKLTVLG	7.69 nM	0.00143 s⁻¹	186000 M⁻¹ s⁻¹	11.1 nM	0.00157 s⁻¹	142000 M⁻¹ s⁻¹
hzsp34.82 (antibody, human IgG1, lambda, L234A L235A, V domains shown, CDR mutant of hzsp34.24; IgG1 L234A L235A, lambda) VH: EVQLVESGGGLVQPGGSLKLSCAASGFTFNTYAMNWVRQASGKGLEWVGRIRLKYNNYATYYADSVKDRFTISRDDSKSTLYLQMNSLKTEDTAVYYCARHGNFGQSYVSWFAYWGQGTTVTVSS VL: QAVVTQEPSLTVSPGGTVTLTCRSSTGAVTTSNYANWVQQKPGQAPRGLIGGTNKRAPGVPARFSGSLLGDKAALTLLGAQPEDEAEYYCALWYSNLWVFGQGTKLTVLG	10.3 nM	0.00168 s⁻¹	163000 M⁻¹ s⁻¹	12 nM	0.00191 s⁻¹	159000 M⁻¹ s⁻¹
hzsp34.83 (antibody, human IgG1, lambda, L234A L235A, V domains shown, CDR mutant of hzsp34.24; IgG1 L234A L235A, lambda) VH: EVQLVESGGGLVQPGGSLKLSCAASGFTFNTYAMNWVRQASGKGLEWVGRIRSKANNYATYYADSVKDRFTISRDDSKSTLYLQMNSLKTEDTAVYYCARHGNFGQSYVSWFAYWGQGTTVTVSS VL: QAVVTQEPSLTVSPGGTVTLTCRSSTGAVTTSNYANWVQQKPGQAPRGLIGGTNKRAPGVPARFSGSLLGDKAALTLLGAQPEDEAEYYCALWYSNLWVFGQGTKLTVLG	0.928 nM	0.0002 s⁻¹	216000 M⁻¹ s⁻¹	3.6 nM	0.000791 s⁻¹	220000 M⁻¹ s⁻¹
hzsp34.84 (antibody, human IgG1, lambda, L234A L235A, V domains shown, CDR mutant of hzsp34.24; IgG1 L234A L235A, lambda) VH: EVQLVESGGGLVQPGGSLKLSCAASGFTFNTYAMNWVRQASGKGLEWVGRIRSKYGNYATYYADSVKDRFTISRDDSKSTLYLQMNSLKTEDTAVYYCARHGNFGQSYVSWFAYWGQGTTVTVSS VL: QAVVTQEPSLTVSPGGTVTLTCRSSTGAVTTSNYANWVQQKPGQAPRGLIGGTNKRAPGVPARFSGSLLGDKAALTLLGAQPEDEAEYYCALWYSNLWVFGQGTKLTVLG	0.812 nM	0.0002 s⁻¹	246000 M⁻¹ s⁻¹	4.89 nM	0.00114 s⁻¹	233000 M⁻¹ s⁻¹
hzsp34.85 (antibody, human IgG1, lambda, L234A L235A, V domains shown, CDR mutant of hzsp34.24; IgG1 L234A L235A, lambda) VH: EVQLVESGGGLVQPGGSLKLSCAASGFTFNTYAMNWVRQASGKGLEWVGRIRSKYNGYATYYADSVKDRFTISRDDSKSTLYLQMNSLKTEDTAVYYCARHGNFGQSYVSWFAYWGQGTTVTVSS VL: QAVVTQEPSLTVSPGGTVTLTCRSSTGAVTTSNYANWVQQKPGQAPRGLIGGTNKRAPGVPARFSGSLLGDKAALTLLGAQPEDEAEYYCALWYSNLWVFGQGTKLTVLG	1.32 nM	0.000304 s⁻¹	230000 M⁻¹ s⁻¹	8.08 nM	0.00201 s⁻¹	249000 M⁻¹ s⁻¹
hzsp34.86 (antibody, human IgG1, lambda, L234A L235A, V domains shown, CDR mutant of hzsp34.24; IgG1 L234A L235A, lambda) VH: EVQLVESGGGLVQPGGSLKLSCAASGFTFNTYAMNWVRQASGKGLEWVGRIRSKYNNYATYYADSVKDRFTISRDDSKSTLYLQMNSLKTEDTAVYYCARAGNFGQSYVSWFAYWGQGTTVTVSS VL: QAVVTQEPSLTVSPGGTVTLTCRSSTGAVTTSNYANWVQQKPGQAPRGLIGGTNKRAPGVPARFSGSLLGDKAALTLLGAQPEDEAEYYCALWYSNLWVFGQGTKLTVLG	1.39 nM	0.000354 s⁻¹	255000 M⁻¹ s⁻¹	6.61 nM	0.00144 s⁻¹	219000 M⁻¹ s⁻¹
hzsp34.87 (antibody, human IgG1, lambda, L234A L235A, V domains shown, CDR mutant of hzsp34.24; IgG1 L234A L235A, lambda) VH: EVQLVESGGGLVQPGGSLKLSCAASGFTFNTYAMNWVRQASGKGLEWVGRIRSKYNNYATYYADSVKDRFTISRDDSKSTLYLQMNSLKTEDTAVYYCARHYNFGQSYVSWFAYWGQGTTVTVSS VL: QAVVTQEPSLTVSPGGTVTLTCRSSTGAVTTSNYANWVQQKPGQAPRGLIGGTNKRAPGVPARFSGSLLGDKAALTLLGAQPEDEAEYYCALWYSNLWVFGQGTKLTVLG	0.88 nM	0.000152 s⁻¹	173000 M⁻¹ s⁻¹	6.06 nM	0.000997 s⁻¹	165000 M⁻¹ s⁻¹
hzsp34.88 (antibody, human IgG1, lambda, L234A L235A, V domains shown, CDR mutant of hzsp34.24; IgG1 L234A L235A, lambda) VH: EVQLVESGGGLVQPGGSLKLSCAASGFTFNTYAMNWVRQASGKGLEWVGRIRSKYNNYATYYADSVKDRFTISRDDSKSTLYLQMNSLKTEDTAVYYCARHGGFGQSYVSWFAYWGQGTTVTVSS VL: QAVVTQEPSLTVSPGGTVTLTCRSSTGAVTTSNYANWVQQKPGQAPRGLIGGTNKRAPGVPARFSGSLLGDKAALTLLGAQPEDEAEYYCALWYSNLWVFGQGTKLTVLG	4.55 nM	0.000797 s⁻¹	175000 M⁻¹ s⁻¹	15.8 nM	0.00205 s⁻¹	130000 M⁻¹ s⁻¹
hzsp34.89 (antibody, human IgG1, lambda, L234A L235A, V domains shown, CDR mutant of hzsp34.24; IgG1 L234A L235A, lambda) VH: EVQLVESGGGLVQPGGSLKLSCAASGFTFNTYAMNWVRQASGKGLEWVGRIRSKYNNYATYYADSVKDRFTISRDDSKSTLYLQMNSLKTEDTAVYYCARHGNAGQSYVSWFAYWGQGTTVTVSS VL: QAVVTQEPSLTVSPGGTVTLTCRSSTGAVTTSNYANWVQQKPGQAPRGLIGGTNKRAPGVPARFSGSLLGDKAALTLLGAQPEDEAEYYCALWYSNLWVFGQGTKLTVLG	6.62 nM	0.00094 s⁻¹	142000 M⁻¹ s⁻¹	13.8 nM	0.00282 s⁻¹	205000 M⁻¹ s⁻¹
